Experimental findings from article PMC8260353 (Nature, 2021) are described below.

Experiment [1] concerns the target T1, Nb12 trimer (three Nb12 units with GGGGS(x3) linkers, fused to human IgG1 Fc) (nanomouse (mouse with camelid VHH genes)).
T1 construct: also called trivalent Nb12
The experiment is described as follows: BLI. To be noted: both partners purified.

The target in experiment [2] is T2, bivalent Nb30 (Nb30 fused to human IgG1 Fc) (nanomouse (mouse with camelid VHH genes)).
T2 construct: also called Nb30 (bivalent)
The experiment is described as follows: BLI. To be noted: both partners purified.

Experiment [3] deals with T3, human immunodeficiency virus-1 (HIV-1) envelope trimer (BG505 DS-SOSIP) (HIV-1 group M subtype A, isolate BG505, UniProt Q2N0S6, stabilised).
Experiment [4] addresses T3, human immunodeficiency virus-1 (HIV-1) …. The experiment is described as follows: BLI; BG505 DS-SOSIP binding to immobilized VHH9 nanobody; kinetic fit. Particulars: both partners purified. (In BLI a coated tip is dipped into the sample, and binding shifts an interference pattern.)

Numbering of substitutions follows the chain as printed. Like-named read-outs stand apart in the source and are kept apart here.

T2 sequence (heavy, as listed by the source): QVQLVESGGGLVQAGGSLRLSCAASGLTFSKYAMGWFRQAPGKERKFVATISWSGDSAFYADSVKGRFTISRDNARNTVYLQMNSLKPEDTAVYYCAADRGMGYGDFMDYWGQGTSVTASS

B1: SARS-CoV RBD fused to the Fc region of human IgG1 (Fc fusion)
chain: not shown
Regarding B1, the binding result in experiment [1] and in experiment [2] was “binds” each time.

B2: VHH9-2 (VHH)
VHH: QVKLEESGGGSVQAGGSLRLSCTAPGFTSNSCGMAWYRQAPGKEREFVSSISTDGTTSYADSVKGRFTISKDKAKDTVYLQMNSLKPEDTAMYSCKTYGPYCYFDVWGAGTTVTVSS
Turning to B2, the binding result in experiment [3] was “binds”.

B3: VHH9-1 (nanobody from nanomouse immunized with BG505 DS-SOSIP) (VHH)
VHH: B2 VHH with Q1E, K3H, E5V, A24T, V113L
Take B3: in experiment [4], the binding result is listed as “binds”.

B4: VHH9-3 (VHH)
VHH: B2 VHH with S117A
B4: the binding result in experiment [3] was “binds”.
